For one series, the target named is T1, Rv3802 (Mycobacterium tuberculosis, UniProt O53581).
T1 construct: gene cut6
The series can be described thus: […]; TLC of […]-palmitoyl-CoA hydrolysis. Type of series: biochemical.

The test system of series [1] is CCCCCCCCCC(=O)SCCNC(=O)CCNC(=O)[C@H](O)C(C)(C)COP(=O)(O)OP(=O)(O)OC[C@H]1O[C@@H](n2cnc3c(N)ncnc32)[C@H](O)[C@@H]1OP(=O)(O)O. The series can be described thus: purified protein.
For series [2], the system named is CCCCCCCCCCCCCCCC(=O)SCCNC(=O)CCNC(=O)[C@H](O)C(C)(C)COP(=O)(O)OP(=O)(O)OC[C@H]1O[C@@H](n2cnc3c(N)ncnc32)[C@H](O)[C@@H]1OP(=O)(O)O. The series can be described thus: purified protein.

T1 sequence (O53581 37-336): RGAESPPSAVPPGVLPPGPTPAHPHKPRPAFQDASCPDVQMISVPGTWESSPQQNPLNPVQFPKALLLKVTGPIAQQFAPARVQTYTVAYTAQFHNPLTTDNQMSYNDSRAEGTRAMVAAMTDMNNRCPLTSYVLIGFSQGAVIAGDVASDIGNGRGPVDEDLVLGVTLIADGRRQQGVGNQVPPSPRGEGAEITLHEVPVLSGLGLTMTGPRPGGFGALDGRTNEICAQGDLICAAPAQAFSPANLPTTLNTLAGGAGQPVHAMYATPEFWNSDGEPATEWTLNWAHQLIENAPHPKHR

As usually defined, the Ki is the equilibrium dissociation constant of an inhibitor or competing ligand from its target. Read a high Ki as weaker binding. `CCCCCCCCCCC[C@@H](C[C@@H]1OC(=O)[C@H]1CCCCCC)OC(=O)[C@H](CC(C)C)NC=O` [THL, tetrahydrolipstatin] returned a Ki at Rv3802 of 5 nM.
As usually defined, the Km is the substrate concentration at which the rate is half of its maximum. In general, kcat refers to the maximal rate divided by the concentration of active sites. In general, kcat/Km refers to the turnover number divided by the Michaelis constant. Turning to “Rv3802 (Mycobacterium tuberculosis H37Rv)”, in series [1], the Km came out at 2280 µM, the kcat was 0.0845 ± 0.0253 s⁻¹ and the kcat/Km was 37 ± 11.1 M⁻¹ s⁻¹. Further, the Michaelis-Menten constant (Km) in series [2] is 17 µM.

The record behind these values is article PMC2625445, “Mycobacterium tuberculosis Rv3802c Encodes a Phospholipase/Thioesterase and Is Inhibited by the Antimycobacterial Agent Tetrahydrolipstatin” (PLoS ONE, 2009).
